Laboratory results as given in patent USRE50313E1, “Musculoskeletal stem cell and medium for inducing differentiation of musculoskeletal stem cell” (CELLATOZ THERAPEUTICS, INC., priority 2017, dated 2025).

Test system: hMSSCs
Assay: Differentiation tendency of MSSC medium vs. CM medium
Type: cell-based, human
Conditions: as compared when the CM medium was used
Experimental: The differentiation capacity of a medium (hereinafter, “CM medium”) obtained by replacing the human noggin (Life Technologies), i.e., the constitutional ingredient 1) of the seven constitutional ingredients of the MSSC medium of Example 2, with a conditioned medium (a culture supernatant obtained after culturing CF1 cells with a medium obtained by replacing DMEM/F12 in a complete medium with knockout DMEM (supplemented with 20% knockout serum replacement (Invitrogen, USA), 1 mM glutamine, 1% nonessential amino acids (Invitrogen, USA), 0.1 mM β-mercaptoethanol, 0.1% penicillin-streptomycin and 5 mg/mL bovine serum albumin)) (the remaining constitutional ingredients 2)-7) are identical) was compared with that of the MSSC medium.
Noggin is generally used to maintain the characteristics of hESCs during culturing (Chaturvedi G, Simone P D, Ain R, Soares M J, Wolfe M W. Noggin maintains pluripotency of human embryonic stem cells grown on Matrigel. Cell Prolif. 2009 August; 42(4): 425-33).

B1: noggin: human noggin, constitutional ingredient 1) of the MSSC medium, 250 ng/mL (protein, UniProt Q13253 28-232, looked up)
Noggin: QHYLHIRPAPSDNLPLVDLIEHPDPIFDPKEKDLNETLLRSLLGGHYDPGFMATSPPEDRPGGGGGAAGGAEDLAELDQLLRQRPSGAMPSEIKGLEFSEGLAQGKKQRLSKKLRRKLQMWLWSQTFCPVLYAWNDLGSRFWPRYVKVGSCFSKRSCSVPEGMVCKPSKSVHLTVLRWRCQRRGGQRCGWIPIQYPIISECKCSC
increase of tendency for osteogenic differentiation: ≥ 10 times
